Measured values as given in the nanobody polyreactivity screen of Harvey et al. (2022).

Experiment: yeast display, Sf9 membrane polyspecificity reagent, FACS + sequencing; frameworks hold sequencing errors
How it was run: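 Genes from sorted yeast were amplified by colony PCR, read by MiSeq 2 × 250 sequencing and filtered on CDR length. These cells carried a synthetic nanobody library in Saccharomyces cerevisiae BJ5465 and were sorted by FACS into low and high (top ~1%) gates on anti-HA and streptavidin fluorescence. Polyreactivity is labelled according to the gate of origin.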
In the case of “QVQLVESVGGLVQAGGNLRLSCAASGIIFSRYALGWYRQAPGKERELVAAITRSGGDTYYADSVKGRFTISRDHAKNTVYLQMNSLKPEDTAVYYCAADRTWYPWVATGYYWGHGTQVTVSS”, the “polyreactivity (PSR sort gate)” value is reported as “low polyreactivity”.
For “QVQLVESVGGLVQAGGRLRLSCAASGFIFYEYAMGWYRQAPGKERELDPAITSGGSTDYADSVKGLFTISRDNAKNTVYLQMNSLKPEDTAVYYCNADLFTGYYWYNYCGQGTQVTVSS”, the “polyreactivity (PSR sort gate)” value was “low polyreactivity”.
In the case of “QVQLVESVGGLVQAGGSHRLSCAASGSIFYYYDMGWYRQGPGKERELFAAINRGVGSTFYADSVKGRFTISRENAKNTVYLQMNSLKPEDTAVDYCSSRWYSRTRAYNYWGQGTQVTVSS”, the “polyreactivity (PSR sort gate)” value is reported as “low polyreactivity”.
In the case of “QVQLVESVGGLVQAGGSLLLSCAASGGIFWVYAMGWYRQAPGKERELVAAISNSDTSTSYADSVKGRFTISRDNAKNTVFLQMNSLKPEDTAVYYCNADSPSLSGDYWGQGTQVTVSS”, the “polyreactivity (PSR sort gate)” value is reported as “low polyreactivity”.
In the case of “QVQLVESVGGLVQAGGSLPLSGAASGSILGFNAMGWSRQAPGKDRELVASITTSGGSTYFADSVKGRFTISRDNAKNTVYLQMNSLKPEDTAVYYCAAYRRYQFVTYYYWGQGTQVTVSS”, the “polyreactivity (PSR sort gate)” value is reported as “high polyreactivity”.
With “QVQLVESVGGLVQAGGSLRFTCAASGGTFRVNAMGWYRQAPGKEREFVAAISGSGSSTYYADSVKGRFTISRDNAKNTVYLQMNSLKPEDTAVYYCAARSGVGGDNDYWGQGTQVTVSS” the “polyreactivity (PSR sort gate)” value was “low polyreactivity”.
For “QVQLVESVGGLVQAGGSLRIICAASGITLAWYSMGWYRKAPGKERELVASISSSGSTNYADSVKGRFTISRDNAKNTVYLQMNSLIPEETAVYYCNKDYLLLHYYIYVIEGDYWGQGTQVTVSS”, the “polyreactivity (PSR sort gate)” value was “low polyreactivity”.
For “QVQLVESVGGLVQAGGSLRISCAASGFIFEVYAMGWYRQAPGKERELIAAIRWSGTSTYYAYSVKGRFTISRDNAKNTFYLQMNSLKPEDTAVYYCAADSWDWHIGGEDYWGQGTQVTVSS”, the “polyreactivity (PSR sort gate)” value was “low polyreactivity”.
In the case of “QVQLVESVGGLVQAGGSLRISCAASGSIFAINAMGWYRQAPVKERELVAAIRTAGRTYYADSVKGRFTISRDNAKNTVYLQMNSLKPEDSSVYDCNDGGKWIGSDYWGQGTQVTVSS”, the “polyreactivity (PSR sort gate)” value is reported as “high polyreactivity”.
For “QVQLVESVGGLVQAGGSLRLICAASGSTFNWYAMGWYRQAPGKERDLVADITWRDGSTYYADSVKGRFTISRDNAKNTVYLQMNSLKPDDPAVYYCADDYTYWGIFFGYWGQGTQVTVSS”, the “polyreactivity (PSR sort gate)” value was “high polyreactivity”.
For “QVQLVESVGGLVQAGGSLRLSCAAAGRTFTLYAMGWYRQATGKERELVAAIRWSGSSTYSADSVKGRFTISRDNAKNTVYLQMNSLKPEDTAVYACDARAGRYDRYGYWGQGTQVSVSS”, the “polyreactivity (PSR sort gate)” value was “high polyreactivity”.
With “QVQLVESVGGLVQAGGSLRLSCAASALAMGWYRHAPGKERELVAVITSDGRTYYADSVKGRFTISRDNAKNTVYLQMNSLKPEDTAVYYCARDSRTIRYYAWFYPFRYDYWGQGTQVTVSS” the “polyreactivity (PSR sort gate)” value was “low polyreactivity”.
In the case of “QVQLVESVGGLVQAGGSLRLSCAASALTFQNNAMGWYRQAPGKEREFVATITSVGRTNYADSVKGRFTISRDNAKNTVYLQMNSLNPEDTAVYYCAASKARWPRGGSKYYYWGQGTQVTVSS”, the “polyreactivity (PSR sort gate)” value is reported as “high polyreactivity”.
For “QVQLVESVGGLVQAGGSLRLSCAASGFIFASYAMGWYRQAPGKERELVAAISWRGGSTYYADSVKGRFTISRDNAKNTVYLQMNSLKPEDTAVYYCKAYVYVGTGRGYDTLDYWGQGTQVTLSS”, the “polyreactivity (PSR sort gate)” value was “low polyreactivity”.
With “QVQLVESVGGLVQAGGSLRLSCAASGFIFSPYAMGWYRQAPGKERELVAAISWNGGRTYYADSVKGRFTISRDYAKNTVYLQMNSLKPEDTAVYYCAASFRNPYSHGYWGQGTQVTVSS” the “polyreactivity (PSR sort gate)” value was “high polyreactivity”.
With “QVQLVESVGGLVQAGGSLRLSCAASGFILRVNDMGWYRQAPGKERELVAAISQGDGSTYYADSVKGRFTISSDNAKNSVYLQMNSLKPEDNAVYYCNAELYRDLGGYDHWGQGTQVTVSS” the “polyreactivity (PSR sort gate)” value was “low polyreactivity”.
For “QVQLVESVGGLVQAGGSLRLSCAASGFTFARYAMGWYIQAPGKERELVAAISISGGRTYYADSVKGRFTISRDNAKNTVYLQMNSLKPEDTAVYYCNKGHVPSYDYNYWGQGTQVTVSS”, the “polyreactivity (PSR sort gate)” value was “high polyreactivity”.
With “QVQLVESVGGLVQAGGSLRLSCAASGFTFHAYAMGWYRQAPGKERELVAVITRGGSTYYADSVKRRFTISLDNAKNTVYLQMKSLKPEDTAVYYCAAVRTKDWRGPEMDYWGQGTQVTVSS” the “polyreactivity (PSR sort gate)” value was “high polyreactivity”.
For “QVQLVESVGGLVQAGGSLRLSCAASGFTFVYNAMGWYRQAPGKEREMVAAISSRGGSTFYADSVKGRFTISRDNAKNTVYLQMNSLKPEDTAVYYCNAVPGWTYDYWGQGTQVTVSS”, the “polyreactivity (PSR sort gate)” value was “high polyreactivity”.
For “QVQLVESVGGLVQAGGSLRLSCAASGITFGYNAMGWYRQAPGKERELVASISYSGDSTYYADSVKGRFTISRDNAKNSVYLQMNSLKPEDTGVYYCAAGRQVLKRRYDYWGQGTQVTVSS”, the “polyreactivity (PSR sort gate)” value was “low polyreactivity”.
For “QVQLVESVGGLVQAGGSLRLSCAASGITFYGYTMGWYIQAPGKERELVAAITSGGITYYADSVKGRFTISRDNAKNTVYLQMNSLKPEDTAVYYCAARRYCYTSITWYDYWGQGTQVTVSS”, the “polyreactivity (PSR sort gate)” value was “high polyreactivity”.
In the case of “QVQLVESVGGLVQAGGSLRLSCAASGITFYYYVMGWYRQAPGKERELVAAIDTGDSTYYADSVKGRFTISRDNAKNTVYLQMNSLKPEDTAVYYCAVDYEADNELNGPDQEYGRDSWGQGTQVTVSS”, the “polyreactivity (PSR sort gate)” value is reported as “low polyreactivity”.
With “QVQLVESVGGLVQAGGSLRLSCAASGLIFLVNAMGWYRQAPGKERELVAAIDRDGGITYADSVKGRFTISRDNAKNTVYLQLNSLKPEDTAVYYCAADPSSYGRFTYDYWGQGTQVTVSS” the “polyreactivity (PSR sort gate)” value was “low polyreactivity”.
In the case of “QVQLVESVGGLVQAGGSLRLSCAASGLTFYVYAMGRYRQAPGKERELVAAITQNGGTTYYADSVKGRFTISRDNAKNTVYLQMNSLKPEDTAVYNCAARRLYAGHQYDYWGQGTQVTVSS”, the “polyreactivity (PSR sort gate)” value is reported as “high polyreactivity”.
In the case of “QVQLVESVGGLVQAGGSLRLSCAASGNTFYAYAMGWYRQAPGKERELVAAIRKSGGNTYYADSVKGRFTISRYNAKNNVYLQMYSLKPEDTAVYYCAARYRGYAFLNYDYWGQGTQVTVSS”, the “polyreactivity (PSR sort gate)” value is reported as “low polyreactivity”.
With “QVQLVESVGGLVQAGGSLRLSCAASGRIFAPYAMGWYRQAPGKERELVAAIRWRGGSTSYADSVKGRFTISRDNAKNTVYLQMNSLKPEDTAVYYCNADYGFSFYWYDYWGQGTQVTVSS” the “polyreactivity (PSR sort gate)” value was “low polyreactivity”.
In the case of “QVQLVESVGGLVQAGGSLRLSCAASGRIFARYAMGWYRQAPGKERELVAAITKSVGSTYYADSVKGRFTISRDNAKKTVYLQMNSLKPEDTAVYYCARVVADSEYDYWGQGTQVTVSS”, the “polyreactivity (PSR sort gate)” value is reported as “high polyreactivity”.
For “QVQLVESVGGLVQAGGSLRLSCAASGRIFGVYAMGWYRQAPGKERELVAAISEGGGSTNYADSVKGRFTISRDNAKNTVYLQMNSLKPEDTAVYYCAATYRTGVRRYYSWGQGTQVTVSS”, the “polyreactivity (PSR sort gate)” value was “low polyreactivity”.
For “QVQLVESVGGLVQAGGSLRLSCAASGRIFLIYSMGWYRQAPGKERELVADISKGGSSTYYADSVKGRFTISRDNAKNTVYLQMNSLKPEDSAVYYCAASGRWTGRQAAYDYWGQGTQVTVSS”, the “polyreactivity (PSR sort gate)” value was “high polyreactivity”.
With “QVQLVESVGGLVQAGGSLRLSCAASGRIFLWYAMGWYRQAPGKERELVAAISGSGGSTSYADSVKGRITISRDNAKNTVYLQMNSLKPEDTAVYYCAALYRTWARYKVYYWGQGTQVTVSS” the “polyreactivity (PSR sort gate)” value was “high polyreactivity”.
In the case of “QVQLVESVGGLVQAGGSLRLSCAASGRIFSVNAMGWYRQAPGKERELVAAITTRGGTTYYADSVKGRFTISRDNAKNTVYLQMNSLKPEDTAVYYCAAESSWYVYWEWAHDYWGQGTQVTVSS”, the “polyreactivity (PSR sort gate)” value is reported as “low polyreactivity”.
In the case of “QVQLVESVGGLVQAGGSLRLSCAASGRIFSVYTMGWYRQAPGKERELVAAISSGASTNYADSVKGRFTISRDNAKNTVYLQMNSLKPEDTAVYYCNAQWYLRLGASKTWVDVDYWGQGTQVTVSS”, the “polyreactivity (PSR sort gate)” value is reported as “low polyreactivity”.
In the case of “QVQLVESVGGLVQAGGSLRLSCAASGRISNDYAMGWYRQAPGKERELVATITFSGGDTYYADSVKGRFTISRDNAKNTVYLQMNSLKPEETAVYYCAASKWRSYSGVWWRLLFDYWGQGTQVTVSS”, the “polyreactivity (PSR sort gate)” value is reported as “low polyreactivity”.
For “QVQLVESVGGLVQAGGSLRLSCAASGRTFDSNAMGWYRQAPGKERELVAAISYSGGSTYYADSVKGRFTISRDNAKNTVYLQMNSLKPEDTAVYYCNAGAVHKKPARDYWGQGTQVTVSS”, the “polyreactivity (PSR sort gate)” value was “low polyreactivity”.
With “QVQLVESVGGLVQAGGSLRLSCAASGRTFGRYAMGWYRQAPGKERELVAGISRSGDSTHYADSVKGRFTISRDNAKNTVYLQMNSLKPEDTAVYYCNKETPTIGARKYEYWGQGTQVTVSS” the “polyreactivity (PSR sort gate)” value was “low polyreactivity”.
For “QVQLVESVGGLVQAGGSLRLSCAASGRTFRFYTMGWYRQAPGKERELVADISWTSGRTYYADSVKGRFTISRDNAKNTVYLQMKSLKPEDTAVYYCAAYFFSRYSLYDYWGQGTQVTVSS”, the “polyreactivity (PSR sort gate)” value was “high polyreactivity”.
With “QVQLVESVGGLVQAGGSLRLSCAASGRTFSGNAMGWYIQAPGKERELVAGISTSGGSTYYADSVKGRFTISRDNSKNTVYLQMNSLKPEDTAVYYCNARSRYRYYRSFGGDYWGQGTQVTVSS” the “polyreactivity (PSR sort gate)” value was “high polyreactivity”.
For “QVQLVESVGGLVQAGGSLRLSCAASGRTFYTYAMGWYRQAPGKERELVAAISSSGSTYYADSVKGRFTISRDNAKKTVYLQMNSLKPEDTAVYYCNARTSRYRRGGDSWGQGTQVTVSS”, the “polyreactivity (PSR sort gate)” value was “high polyreactivity”.
For “QVQLVESVGGLVQAGGSLRLSCAASGRTIVSNAMGWYRQAPGKERELVAAITRGSRTYYADSVKGRFTISRDNAKNTVYLQMNSLKPEDTAVYYCNARHVRYPFTGNYWGQGTQVTVSS”, the “polyreactivity (PSR sort gate)” value was “high polyreactivity”.
For “QVQLVESVGGLVQAGGSLRLSCAASGRTVGGNAMGWYRQAPGKERELVAAINRSGGTTYYADSVKGRFTISRDNAKNTVYLQMNSLKPEDTAVYYCAARRTVSATRMGYWGQGTQVTVSS”, the “polyreactivity (PSR sort gate)” value was “high polyreactivity”.
With “QVQLVESVGGLVQAGGSLRLSCAASGSIFGPNAMGWYRQAPGKERELVAAISLSTGSTYYADSVKGRFTISRDTAKNTVYLQMNSLKPEDTAVYYCAAYYVTPIYYYWGQGTQVTVSS” the “polyreactivity (PSR sort gate)” value was “low polyreactivity”.
In the case of “QVQLVESVGGLVQAGGSLRLSCAASGSIFGTYAMGWYRQAPGKERELVAAISWRGGTYYADSVKGRFTISRDNAKNTVYLQMNSLKPEDTAVYYCNKLYTHRALGRLDYWGQGTQVTVSS”, the “polyreactivity (PSR sort gate)” value is reported as “high polyreactivity”.
In the case of “QVQLVESVGGLVQAGGSLRLSCAASGSIFGVYVMGWYRQAPGKERELVAAITRGASTNYADSVKGRFTISRDNAKNTVYLQMKSLKPEDTAVYYCAAEWWEEYGYYDDNDYWGQGTQVTVSS”, the “polyreactivity (PSR sort gate)” value is reported as “low polyreactivity”.
